Data as given in the supplement of paper PMC10567573.

B1: PBXIP1 (parent)
chain: LPVETLGPASRMDPESERALQAPH

Variants of: B1
Test: protein stability index of a GFP-peptide fusion (GPS, HEK-293T) (PSI 1-6); higher = more stable
Conditions: c terminus: a fixed tail appended
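Also: lentivirally expressed fusions sorted by FACS into six bins by GFP to DsRed ratio, PSI derived from sequencing read proportions per bin multiplied by bin number.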

Protein stability index of substitutions, site by site:
T5: R 4.14 | L 3.9 | N 5.12 | P 4.95 | I 4.52 | W 4.65 | D 5.49 | G 5.33 | S 4.68 | M 4.41 | C 4.89 | K 4.38 | A 5.26 | E 5.77 | Y 4.93 | F 4.89 | Q 5.52 | V 4.6 | H 4.72
A19: C 4.48 | D 4.41 | H 4.31 | K 4.32 | S 4.19 | W 3.82 | E 4.68 | Y 3.64 | M 4.21 | Q 4.46 | R 4.09 | L 4.22 | V 4.46 | I 4 | T 4.63 | P 4.71 | F 4.05 | N 4.45 | G 4.23
A9: F 3.83 | L 3.18 | I 4.04 | Y 4.26 | N 4.63 | V 2.51 | E 4.56 | R 4.81 | D 4.54 | W 4.42 | C 3.68 | G 4.33 | P 4.92 | H 4.91 | Q 4.59 | M 4.12 | K 4.77 | T 4.51
E17: Q 4.06 | C 3.76 | W 3.4 | L 3.72 | S 4.56 | I 3.1 | P 4.18 | F 3.61 | A 3.65 | M 3.9 | Y 3.92 | R 3.91 | D 3.97 | N 4.29 | G 4.13 | V 4.62 | T 4.23 | H 3.92 | K 4.19
E4: D 5.71 | N 4.53 | H 4.79 | M 4.74 | P 5.25 | R 5.09 | Y 4.22 | S 4.94 | K 4.99 | V 4.62 | G 5.03 | T 5.18 | A 5.07 | W 3.71 | F 3.94 | C 4.99 | L 3.49 | Q 4.46 | I 4.98
P14: L 3.91 | K 4.43 | Y 3.72 | Q 4.75 | W 3.81 | G 3.56 | A 4.62 | H 3.61 | D 4.44 | C 4.13 | V 4.42 | I 4.22 | N 4 | E 4.61 | T 4.37 | F 4.32 | R 4.19 | S 4.09 | M 4.04
R18: W 3.66 | K 4.6 | Y 3.7 | H 4.77 | E 4.47 | A 4.57 | C 4.12 | P 4.18 | L 3.69 | I 4.29 | V 4.45 | N 4.62 | G 4.66 | T 4.82 | D 4.44 | M 4.73 | Q 4.55 | F 4.07 | S 4.19
E15: Q 4.26 | A 4.35 | R 4.19 | M 3.48 | V 4.28 | L 4.03 | H 4.13 | P 3.92 | Y 3.95 | N 4.47 | G 3.99 | K 4.04 | T 4.02 | D 5.08 | I 3.27 | W 3.1 | F 3.81 | C 3.82 | S 3.81
M12: K 5.34 | P 4.35 | I 4.5 | V 4.34 | Y 4.09 | Q 4.89 | F 4.15 | C 4.32 | G 4.4 | R 4.33 | N 4.41 | T 4.45 | D 4.95 | S 4.11 | L 4.04 | H 4.11 | E 4.46 | W 4.17 | A 4.31
P8: L 4.99 | Q 5.1 | M 4.16 | K 4.39 | G 5.57 | H 4.51 | C 5.37 | I 4.89 | T 5.31 | N 5.28 | W 4.01 | R 4.73 | D 5.46 | Y 4.67 | A 5.03 | E 5.52 | V 4.83 | F 4.19 | S 4.64
G7: V 4.95 | L 5.23 | H 4.54 | C 5 | F 4.62 | S 5.42 | A 5.51 | W 4.63 | N 5.24 | K 5.55 | P 4.61 | D 5.29 | E 5.51 | T 5.37 | Y 4.63 | R 5.12 | Q 4.99 | I 4.76 | M 4.03
L6: S 5.44 | W 4.72 | C 4.55 | F 4.81 | H 5.09 | M 5.3 | K 5.03 | Q 5.78 | G 4.71 | V 4.45 | R 5.28 | I 3.73 | Y 5.53 | E 5.21 | A 5.19 | N 5.42 | P 5.41 | D 5.48 | T 5.37
R11: I 2.99 | P 3.98 | C 4.63 | L 3.66 | Q 4.09 | F 3.6 | N 4.4 | G 3.95 | M 3.96 | Y 3.67 | E 4.48 | S 4.01 | A 4.18 | H 3.71 | V 4.66 | T 4.2 | W 3.7 | K 4
D13: Q 3.7 | A 4.61 | W 3.71 | H 3.83 | T 4.28 | G 4.41 | M 4.11 | E 4.66 | I 4.61 | L 3.75 | R 2.62 | K 3.98 | C 3.64 | F 4.48 | V 4.38 | N 4.66 | S 3.88 | Y 3.73 | P 4.13
S10: L 3.53 | F 3.75 | D 4.92 | T 4.78 | N 5.01 | E 5.28 | Q 4.88 | G 4.47 | H 4.2 | A 5.14 | W 4.4 | K 5.32 | V 4.44 | Y 3.85 | R 4.99 | I 3.95 | M 4.3 | C 4.24
S16: Q 4.53 | Y 4.05 | T 4.35 | N 4.54 | D 4.54 | L 2.83 | K 4.34 | W 4.12 | A 4.16 | M 4.09 | V 4.31 | E 4.48 | G 4.56 | F 3.85 | R 3.56 | P 3.95 | I 3.77 | C 4.49 | H 4.25
L20: R 4.86 | N 4.42 | E 4.81 | G 4.46 | Q 4.7 | D 4.92 | H 4.27 | K 4.41 | P 4.72 | S 4.49 | T 4.58 | I 4.55 | M 4.45 | F 4.28 | C 3.99 | A 4.26
V3: T 5.56 | W 4.55 | L 4.63 | M 4.74 | G 4.78 | I 4.92 | K 5.38 | Y 5.04 | Q 5.07 | P 5.25 | S 4.83 | H 5.34 | D 5.5 | F 4.88 | N 5.42 | E 5.36 | R 4.27
